Measurements as given in the supplement of paper PMC9112550, “Optimization of the antimicrobial peptide Bac7 by deep mutational scanning” (BMC Biology, 2022).

system: Escherichia coli TOP10; test: shrunken log2 fold change of peptide-encoding DNA abundance (4.5 h post-induction vs induction); higher = less antimicrobial activity (less host growth inhibition); conditions: time post-induction: 4.5 h; library: site-saturation at positions 5, 18, 19, 20
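Also: peptides expressed intracellularly from a pBAD plasmid library in pooled LB shake-flask culture, induced with 0.3% L-arabinose, DNA abundance read by NGS, three biological replicates, DESeq2 with apeglm shrinkage.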

| Sequence | shrunken log2 fold change |
| --- | --- |
| RRIRHRPPRLPRPRPRPAIQPRP | 0.0477 |
| RRIRQRPPRLPRPRPRPIPIPRP | -0.104 |
| RRIRYRPPRLPRPRPRPMPCPRP | -0.0166 |
| RRIRERPPRLPRPRPRPRWCPRP | 0.0485 |
| RRIRYRPPRLPRPRPRPMHIPRP | -0.0235 |
| RRIRIRPPRLPRPRPRPLADPRP | -0.0519 |
| RRIRPRPPRLPRPRPRPTMLPRP | -0.114 |
| RRIRWRPPRLPRPRPRPRHHPRP | -0.0574 |
| RRIRQRPPRLPRPRPRPVPDPRP | 0.106 |
| RRIRHRPPRLPRPRPRPCYLPRP | -0.897 |
| RRIRPRPPRLPRPRPRPLVDPRP | 0.111 |
| RRIRQRPPRLPRPRPRPVNHPRP | -0.212 |
| RRIRCRPPRLPRPRPRPGQIPRP | 0.165 |
| RRIRVRPPRLPRPRPRPGKKPRP | 0.0628 |
| RRIRQRPPRLPRPRPRPLQDPRP | -0.0148 |
| RRIRDRPPRLPRPRPRPPHGPRP | 0.294 |
| RRIRFRPPRLPRPRPRPMHGPRP | -0.0727 |
| RRIRRRPPRLPRPRPRPDWAPRP | -0.221 |
| RRIRKRPPRLPRPRPRPPLIPRP | 0.285 |
| RRIRDRPPRLPRPRPRPQDHPRP | 0.0862 |
| RRIRIRPPRLPRPRPRPMPNPRP | -0.0781 |
| RRIRQRPPRLPRPRPRPYCFPRP | -1 |

| Sequence | shrunken log2 fold change |
| --- | --- |
| RRIRYRPPRLPRPRPRPNKPPRP | -0.18 |
| RRIRIRPPRLPRPRPRPDQAPRP | -0.002 |
| RRIRIRPPRLPRPRPRPGHPPRP | -0.212 |
| RRIRYRPPRLPRPRPRPSRWPRP | 0.0398 |
| RRIRRRPPRLPRPRPRPVKHPRP | 0.25 |
| RRIRLRPPRLPRPRPRPEICPRP | -0.0881 |
| RRIRERPPRLPRPRPRPDCMPRP | -0.255 |
| RRIRPRPPRLPRPRPRPMTTPRP | -0.104 |
| RRIRTRPPRLPRPRPRPTFHPRP | -0.174 |
| RRIRQRPPRLPRPRPRPRHDPRP | 0.0818 |
| RRIRDRPPRLPRPRPRPSKVPRP | -0.152 |
| RRIRWRPPRLPRPRPRPFPIPRP | -0.169 |
| RRIRPRPPRLPRPRPRPTNIPRP | -0.687 |
| RRIRHRPPRLPRPRPRPPTHPRP | -0.117 |
| RRIRARPPRLPRPRPRPVWKPRP | 0.125 |
| RRIRPRPPRLPRPRPRPRYDPRP | 0.0231 |
| RRIRLRPPRLPRPRPRPTNVPRP | -0.165 |
| RRIRDRPPRLPRPRPRPCNAPRP | 0.0759 |
| RRIRHRPPRLPRPRPRPERVPRP | 0.228 |
| RRIRCRPPRLPRPRPRPGSMPRP | -0.24 |
| RRIRARPPRLPRPRPRPTYSPRP | -0.204 |
| RRIRQRPPRLPRPRPRPSSDPRP | -0.609 |

| Sequence | shrunken log2 fold change |
| --- | --- |
| RRIRQRPPRLPRPRPRPFNEPRP | -0.03 |
| RRIRERPPRLPRPRPRPRLAPRP | 0.269 |
| RRIRRRPPRLPRPRPRPDRCPRP | 0.00426 |
| RRIRMRPPRLPRPRPRPLIFPRP | -0.139 |
| RRIRFRPPRLPRPRPRPRILPRP | 0.0716 |
| RRIRDRPPRLPRPRPRPDEVPRP | -0.01 |
| RRIRGRPPRLPRPRPRPPCFPRP | 0.456 |
| RRIRERPPRLPRPRPRPCQDPRP | -0.534 |
| RRIRLRPPRLPRPRPRPLDTPRP | 0.0486 |
| RRIRGRPPRLPRPRPRPFMGPRP | -0.123 |
| RRIRFRPPRLPRPRPRPESCPRP | -0.141 |
| RRIRCRPPRLPRPRPRPSRQPRP | 0.222 |
| RRIRPRPPRLPRPRPRPLCYPRP | -0.488 |
| RRIRKRPPRLPRPRPRPIEQPRP | -0.0195 |
| RRIRTRPPRLPRPRPRPDGMPRP | 0.0749 |
| RRIRWRPPRLPRPRPRPPDTPRP | 0.525 |
| RRIRDRPPRLPRPRPRPHLHPRP | -0.0995 |
| RRIRKRPPRLPRPRPRPIRFPRP | -0.186 |
| RRIRERPPRLPRPRPRPKITPRP | -0.514 |
| RRIRVRPPRLPRPRPRPRFIPRP | -0.318 |
| RRIRYRPPRLPRPRPRPCTRPRP | -0.111 |
| RRIRWRPPRLPRPRPRPHQVPRP | -0.145 |

| Sequence | shrunken log2 fold change |
| --- | --- |
| RRIRARPPRLPRPRPRPYGVPRP | -0.12 |
| RRIRLRPPRLPRPRPRPQLIPRP | -0.0529 |
| RRIRQRPPRLPRPRPRPEWEPRP | 0.00902 |
| RRIRPRPPRLPRPRPRPCKNPRP | -0.328 |
| RRIRIRPPRLPRPRPRPNWPPRP | -0.146 |
| RRIRDRPPRLPRPRPRPADAPRP | 0.196 |
| RRIRPRPPRLPRPRPRPAAHPRP | 0.0385 |
| RRIRERPPRLPRPRPRPKKIPRP | -0.515 |
| RRIRTRPPRLPRPRPRPRRQPRP | -0.0389 |
| RRIRGRPPRLPRPRPRPNKLPRP | -0.096 |
| RRIRIRPPRLPRPRPRPHWRPRP | -0.101 |
| RRIRKRPPRLPRPRPRPVILPRP | -0.612 |
| RRIRPRPPRLPRPRPRPCHCPRP | 0.153 |
| RRIRERPPRLPRPRPRPCAMPRP | -0.0091 |
| RRIRCRPPRLPRPRPRPICHPRP | 1.48 |
| RRIRLRPPRLPRPRPRPCMFPRP | -0.431 |
| RRIRMRPPRLPRPRPRPGRIPRP | 0.0372 |
| RRIRGRPPRLPRPRPRPLFMPRP | 0.223 |
| RRIRMRPPRLPRPRPRPQYQPRP | -0.00342 |
| RRIRNRPPRLPRPRPRPVRSPRP | -0.00792 |
| RRIRKRPPRLPRPRPRPRGKPRP | 0.126 |
| RRIRARPPRLPRPRPRPVEPPRP | 0.297 |

| Sequence | shrunken log2 fold change |
| --- | --- |
| RRIRNRPPRLPRPRPRPMDEPRP | 0.358 |
| RRIRTRPPRLPRPRPRPLCSPRP | -0.27 |
| RRIRYRPPRLPRPRPRPVLQPRP | -0.297 |
| RRIRSRPPRLPRPRPRPIGPPRP | -0.0999 |
| RRIRWRPPRLPRPRPRPGYFPRP | -0.152 |
| RRIRMRPPRLPRPRPRPRLAPRP | 2.7 |
| RRIRWRPPRLPRPRPRPSFTPRP | -0.397 |
| RRIRWRPPRLPRPRPRPKAIPRP | -0.00613 |
| RRIRCRPPRLPRPRPRPPSLPRP | 0.413 |
| RRIRWRPPRLPRPRPRPSCCPRP | 0.174 |
| RRIRKRPPRLPRPRPRPQVNPRP | -0.124 |
| RRIRPRPPRLPRPRPRPCWCPRP | -0.0719 |
| RRIRTRPPRLPRPRPRPKEEPRP | 0.00448 |
| RRIRCRPPRLPRPRPRPIAQPRP | 0.00422 |
| RRIRGRPPRLPRPRPRPEEFPRP | 0.593 |
| RRIRHRPPRLPRPRPRPVLYPRP | -0.317 |
| RRIRIRPPRLPRPRPRPDVPPRP | -0.372 |
| RRIRRRPPRLPRPRPRPEIPPRP | 0.163 |
| RRIRKRPPRLPRPRPRPYSRPRP | -0.0735 |
| RRIRHRPPRLPRPRPRPCHFPRP | -0.0384 |
| RRIRTRPPRLPRPRPRPGQTPRP | -0.0115 |
